In IntAct's records for PubMed 21642969:

B1: Transcription intermediary factor 1-beta (Homo sapiens), Q13263 (parent)
chain: MAASAAAASAAAASAASGSPGPGEGSAGGEKRSTAPSAAASASASAAASSPAGGGAEALELLEHCGVCRERLRPEREPRLLPCLHSACSACLGPAAPAAANSSGDGGAAGDGTVVDCPVCKQQCFSKDIVENYFMRDSGSKAATDAQDANQCCTSCEDNAPATSYCVECSEPLCETCVEAHQRVKYTKDHTVRSTGPAKSRDGERTVYCNVHKHEPLVLFCESCDTLTCRDCQLNAHKDHQYQFLEDAVRNQRKLLASLVKRLGDKHATLQKSTKEVRSSIRQVSDVQKRVQVDVKMAILQIMKELNKRGRVLVNDAQKVTEGQQERLERQHWTMTKIQKHQEHILRFASWALESDNNTALLLSKKLIYFQLHRALKMIVDPVEPHGEMKFQWDLNAWTKSAEAFGKIVAERPGTNSTGPAPMAPPRAPGPLSKQGSGSSQPMEVQEGYGFGSGDDPYSSAEPHVSGVKRSRSGEGEVSGLMRKVPRVSLERLDLDLTADSQPPVFKVFPGSTTEDYNLIVIERGAAAAATGQPGTAPAGTPGAPPLAGMAIVKEEETEAAIGAPPTATEGPETKPVLMALAEGPGAEGPRLASPSGSTSSGLEVVAPEGTSAPGGGPGTLDDSATICRVCQKPGDLVMCNQCEFCFHLDCHLPALQDVPGEEWSCSLCHVLPDLKEEDGSLSLDGADSTGVVAKLSPANQRKCERVLLALFCHEPCRPLHQLATDSTFSLDQPGGTLDLTLIRARLQEKLSPPYSSPQEFAQDVGRMFKQFNKLTEDKADVQSIIGLQRFFETRMNEAFGDTKFSAVLVEPPPMSLPGAGLSSQELSGGPGDGP

Variants of: B1
Details: with chd3_human CHD3, Q12873
Chain of chd3_human CHD3, Q12873 (Q12873 whole entry): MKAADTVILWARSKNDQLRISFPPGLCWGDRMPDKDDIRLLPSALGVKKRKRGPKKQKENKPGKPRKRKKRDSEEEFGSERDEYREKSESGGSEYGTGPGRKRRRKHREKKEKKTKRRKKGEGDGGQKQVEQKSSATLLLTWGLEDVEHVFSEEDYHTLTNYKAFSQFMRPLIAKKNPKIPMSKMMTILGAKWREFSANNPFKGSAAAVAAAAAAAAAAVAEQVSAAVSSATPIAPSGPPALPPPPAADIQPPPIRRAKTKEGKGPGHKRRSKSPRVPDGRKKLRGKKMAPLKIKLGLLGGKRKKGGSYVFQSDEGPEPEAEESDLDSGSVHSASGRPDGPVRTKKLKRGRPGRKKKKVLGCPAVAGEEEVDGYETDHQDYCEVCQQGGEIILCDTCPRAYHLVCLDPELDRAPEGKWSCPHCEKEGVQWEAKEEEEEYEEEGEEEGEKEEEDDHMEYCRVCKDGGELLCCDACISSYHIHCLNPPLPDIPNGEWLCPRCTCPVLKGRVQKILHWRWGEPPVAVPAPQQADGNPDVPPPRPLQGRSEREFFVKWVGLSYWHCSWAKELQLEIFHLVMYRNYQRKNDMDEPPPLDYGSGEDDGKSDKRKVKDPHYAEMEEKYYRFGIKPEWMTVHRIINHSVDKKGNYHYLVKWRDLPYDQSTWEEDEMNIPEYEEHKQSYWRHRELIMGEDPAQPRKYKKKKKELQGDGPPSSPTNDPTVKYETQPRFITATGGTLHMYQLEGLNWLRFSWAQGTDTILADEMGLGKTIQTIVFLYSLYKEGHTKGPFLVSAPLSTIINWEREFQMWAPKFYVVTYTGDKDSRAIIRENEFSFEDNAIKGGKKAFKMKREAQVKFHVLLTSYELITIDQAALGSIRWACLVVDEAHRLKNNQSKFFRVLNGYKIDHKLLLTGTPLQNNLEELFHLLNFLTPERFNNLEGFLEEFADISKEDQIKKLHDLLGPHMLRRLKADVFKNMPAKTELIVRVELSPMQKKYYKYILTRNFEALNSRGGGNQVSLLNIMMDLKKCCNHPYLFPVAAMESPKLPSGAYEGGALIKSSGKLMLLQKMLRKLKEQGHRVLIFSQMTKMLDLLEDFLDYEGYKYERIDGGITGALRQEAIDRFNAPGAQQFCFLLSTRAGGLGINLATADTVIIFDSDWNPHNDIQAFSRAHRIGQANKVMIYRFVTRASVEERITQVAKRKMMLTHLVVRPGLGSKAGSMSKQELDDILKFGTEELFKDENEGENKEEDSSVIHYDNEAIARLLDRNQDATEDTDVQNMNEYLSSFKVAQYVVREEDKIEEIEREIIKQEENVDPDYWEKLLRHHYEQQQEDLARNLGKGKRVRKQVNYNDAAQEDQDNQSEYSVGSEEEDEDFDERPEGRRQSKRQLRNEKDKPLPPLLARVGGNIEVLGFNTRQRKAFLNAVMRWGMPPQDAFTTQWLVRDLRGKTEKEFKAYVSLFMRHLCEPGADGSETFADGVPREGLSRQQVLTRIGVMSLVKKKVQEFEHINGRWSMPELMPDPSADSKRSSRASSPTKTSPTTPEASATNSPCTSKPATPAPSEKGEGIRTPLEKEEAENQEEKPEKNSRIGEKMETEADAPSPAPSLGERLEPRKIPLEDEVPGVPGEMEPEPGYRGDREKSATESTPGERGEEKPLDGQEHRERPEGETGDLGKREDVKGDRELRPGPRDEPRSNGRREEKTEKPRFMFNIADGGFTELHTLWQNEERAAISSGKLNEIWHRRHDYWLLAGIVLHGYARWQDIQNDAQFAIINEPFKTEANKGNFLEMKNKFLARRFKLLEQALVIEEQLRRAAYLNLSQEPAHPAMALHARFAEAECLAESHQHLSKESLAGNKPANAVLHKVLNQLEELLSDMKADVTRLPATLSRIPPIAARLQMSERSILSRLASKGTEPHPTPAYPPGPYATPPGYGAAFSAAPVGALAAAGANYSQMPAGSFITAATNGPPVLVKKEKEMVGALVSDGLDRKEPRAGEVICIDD

| effect of a mutation on the interaction | Variant |
| --- | --- |
| disrupting interaction | K554R;K779R;K804R |
| decreasing interaction | S824D |
